Non-standard residues stand in square brackets, D forms with d. No end group written: not given here. Ala(4-thiazolyl) = N[C@@H](Cc1cscn1)C(=O)O; 1Nal = N[C@@H](Cc1cccc2ccccc12)C(=O)O; Phe(2-F) = N[C@@H](Cc1ccccc1F)C(=O)O; Chg = N[C@H](C(=O)O)C1CCCCC1; Nle = CCCC[C@H](N)C(=O)O
B1: SEQ ID NO: 13 (peptide)
peptide: [Ala(4-thiazolyl)]SQGTFTSDFSKQ[Nle]ESRRAQDFIEWLLATGPESGAPPPS-OH
modifications: N-terminus assumed
SMILES: CCCC[C@H](NC(=O)[C@H](CCC(N)=O)NC(=O)[C@H](CCCCN)NC(=O)[C@H](CO)NC(=O)[C@H](Cc1ccccc1)NC(=O)[C@H](CC(=O)O)NC(=O)[C@H](CO)NC(=O)[C@@H](NC(=O)[C@H](Cc1ccccc1)NC(=O)[C@@H](NC(=O)CNC(=O)[C@H](CCC(N)=O)NC(=O)[C@H](CO)NC(=O)[C@@H](N)Cc1cscn1)[C@@H](C)O)[C@@H](C)O)C(=O)N[C@@H](CCC(=O)O)C(=O)N[C@@H](CO)C(=O)N[C@@H](CCCNC(=N)N)C(=O)N[C@@H](CCCNC(=N)N)C(=O)N[C@@H](C)C(=O)N[C@@H](CCC(N)=O)C(=O)N[C@@H](CC(=O)O)C(=O)N[C@@H](Cc1ccccc1)C(=O)N[C@H](C(=O)N[C@@H](CCC(=O)O)C(=O)N[C@@H](Cc1c[nH]c2ccccc12)C(=O)N[C@@H](CC(C)C)C(=O)N[C@@H](CC(C)C)C(=O)N[C@@H](C)C(=O)N[C@H](C(=O)NCC(=O)N1CCC[C@H]1C(=O)N[C@@H](CCC(=O)O)C(=O)N[C@@H](CO)C(=O)NCC(=O)N[C@@H](C)C(=O)N1CCC[C@H]1C(=O)N1CCC[C@H]1C(=O)N1CCC[C@H]1C(=O)N[C@@H](CO)C(=O)O)[C@@H](C)O)[C@@H](C)CC
B2: SEQ ID NO: 9 (peptide)
peptide: [Ala(4-thiazolyl)]SQGTFTSDVSKQLESRRAQEFIEWLLAGGPESGAPPPS-OH
modifications: N-terminus assumed
SMILES: CC[C@H](C)[C@H](NC(=O)[C@H](Cc1ccccc1)NC(=O)[C@H](CCC(=O)O)NC(=O)[C@H](CCC(N)=O)NC(=O)[C@H](C)NC(=O)[C@H](CCCNC(=N)N)NC(=O)[C@H](CCCNC(=N)N)NC(=O)[C@H](CO)NC(=O)[C@H](CCC(=O)O)NC(=O)[C@H](CC(C)C)NC(=O)[C@H](CCC(N)=O)NC(=O)[C@H](CCCCN)NC(=O)[C@H](CO)NC(=O)[C@@H](NC(=O)[C@H](CC(=O)O)NC(=O)[C@H](CO)NC(=O)[C@@H](NC(=O)[C@H](Cc1ccccc1)NC(=O)[C@@H](NC(=O)CNC(=O)[C@H](CCC(N)=O)NC(=O)[C@H](CO)NC(=O)[C@@H](N)Cc1cscn1)[C@@H](C)O)[C@@H](C)O)C(C)C)C(=O)N[C@@H](CCC(=O)O)C(=O)N[C@@H](Cc1c[nH]c2ccccc12)C(=O)N[C@@H](CC(C)C)C(=O)N[C@@H](CC(C)C)C(=O)N[C@@H](C)C(=O)NCC(=O)NCC(=O)N1CCC[C@H]1C(=O)N[C@@H](CCC(=O)O)C(=O)N[C@@H](CO)C(=O)NCC(=O)N[C@@H](C)C(=O)N1CCC[C@H]1C(=O)N1CCC[C@H]1C(=O)N1CCC[C@H]1C(=O)N[C@@H](CO)C(=O)O
B3: SEQ ID NO: 21 (peptide)
peptide: [Ala(4-thiazolyl)]SQGTFTSD[Phe(2-F)]SKQLESRRAQDFIEWLLATGPESGAPPPS-OH
modifications: N-terminus assumed
SMILES: CC[C@H](C)[C@H](NC(=O)[C@H](Cc1ccccc1)NC(=O)[C@H](CC(=O)O)NC(=O)[C@H](CCC(N)=O)NC(=O)[C@H](C)NC(=O)[C@H](CCCNC(=N)N)NC(=O)[C@H](CCCNC(=N)N)NC(=O)[C@H](CO)NC(=O)[C@H](CCC(=O)O)NC(=O)[C@H](CC(C)C)NC(=O)[C@H](CCC(N)=O)NC(=O)[C@H](CCCCN)NC(=O)[C@H](CO)NC(=O)[C@H](Cc1ccccc1F)NC(=O)[C@H](CC(=O)O)NC(=O)[C@H](CO)NC(=O)[C@@H](NC(=O)[C@H](Cc1ccccc1)NC(=O)[C@@H](NC(=O)CNC(=O)[C@H](CCC(N)=O)NC(=O)[C@H](CO)NC(=O)[C@@H](N)Cc1cscn1)[C@@H](C)O)[C@@H](C)O)C(=O)N[C@@H](CCC(=O)O)C(=O)N[C@@H](Cc1c[nH]c2ccccc12)C(=O)N[C@@H](CC(C)C)C(=O)N[C@@H](CC(C)C)C(=O)N[C@@H](C)C(=O)N[C@H](C(=O)NCC(=O)N1CCC[C@H]1C(=O)N[C@@H](CCC(=O)O)C(=O)N[C@@H](CO)C(=O)NCC(=O)N[C@@H](C)C(=O)N1CCC[C@H]1C(=O)N1CCC[C@H]1C(=O)N1CCC[C@H]1C(=O)N[C@@H](CO)C(=O)O)[C@@H](C)O
B4: SEQ ID NO: 20 (peptide)
peptide: [Ala(4-thiazolyl)]SQGTFTSD[Chg]SKQ[Nle]ESRRAQDFIEWLLATGPESGAPPPS-OH
modifications: N-terminus assumed
SMILES: CCCC[C@H](NC(=O)[C@H](CCC(N)=O)NC(=O)[C@H](CCCCN)NC(=O)[C@H](CO)NC(=O)[C@@H](NC(=O)[C@H](CC(=O)O)NC(=O)[C@H](CO)NC(=O)[C@@H](NC(=O)[C@H](Cc1ccccc1)NC(=O)[C@@H](NC(=O)CNC(=O)[C@H](CCC(N)=O)NC(=O)[C@H](CO)NC(=O)[C@@H](N)Cc1cscn1)[C@@H](C)O)[C@@H](C)O)C1CCCCC1)C(=O)N[C@@H](CCC(=O)O)C(=O)N[C@@H](CO)C(=O)N[C@@H](CCCNC(=N)N)C(=O)N[C@@H](CCCNC(=N)N)C(=O)N[C@@H](C)C(=O)N[C@@H](CCC(N)=O)C(=O)N[C@@H](CC(=O)O)C(=O)N[C@@H](Cc1ccccc1)C(=O)N[C@H](C(=O)N[C@@H](CCC(=O)O)C(=O)N[C@@H](Cc1c[nH]c2ccccc12)C(=O)N[C@@H](CC(C)C)C(=O)N[C@@H](CC(C)C)C(=O)N[C@@H](C)C(=O)N[C@H](C(=O)NCC(=O)N1CCC[C@H]1C(=O)N[C@@H](CCC(=O)O)C(=O)N[C@@H](CO)C(=O)NCC(=O)N[C@@H](C)C(=O)N1CCC[C@H]1C(=O)N1CCC[C@H]1C(=O)N1CCC[C@H]1C(=O)N[C@@H](CO)C(=O)O)[C@@H](C)O)[C@@H](C)CC
B5: SEQ ID NO: 19 (peptide)
peptide: [Ala(4-thiazolyl)]SQGTFTSD[1Nal]SKQ[Nle]ESRRAQDFIEWLLATGPESGAPPPS-OH
modifications: N-terminus assumed
SMILES: CCCC[C@H](NC(=O)[C@H](CCC(N)=O)NC(=O)[C@H](CCCCN)NC(=O)[C@H](CO)NC(=O)[C@H](Cc1cccc2ccccc12)NC(=O)[C@H](CC(=O)O)NC(=O)[C@H](CO)NC(=O)[C@@H](NC(=O)[C@H](Cc1ccccc1)NC(=O)[C@@H](NC(=O)CNC(=O)[C@H](CCC(N)=O)NC(=O)[C@H](CO)NC(=O)[C@@H](N)Cc1cscn1)[C@@H](C)O)[C@@H](C)O)C(=O)N[C@@H](CCC(=O)O)C(=O)N[C@@H](CO)C(=O)N[C@@H](CCCNC(=N)N)C(=O)N[C@@H](CCCNC(=N)N)C(=O)N[C@@H](C)C(=O)N[C@@H](CCC(N)=O)C(=O)N[C@@H](CC(=O)O)C(=O)N[C@@H](Cc1ccccc1)C(=O)N[C@H](C(=O)N[C@@H](CCC(=O)O)C(=O)N[C@@H](Cc1c[nH]c2ccccc12)C(=O)N[C@@H](CC(C)C)C(=O)N[C@@H](CC(C)C)C(=O)N[C@@H](C)C(=O)N[C@H](C(=O)NCC(=O)N1CCC[C@H]1C(=O)N[C@@H](CCC(=O)O)C(=O)N[C@@H](CO)C(=O)NCC(=O)N[C@@H](C)C(=O)N1CCC[C@H]1C(=O)N1CCC[C@H]1C(=O)N1CCC[C@H]1C(=O)N[C@@H](CO)C(=O)O)[C@@H](C)O)[C@@H](C)CC
B6: SEQ ID NO: 18 (peptide)
peptide: [Ala(4-thiazolyl)]SQGTFTSD[Phe(2-F)]SKQ[Nle]ESRRAQDFIEWLLATGPESGAPPPS-OH
modifications: N-terminus assumed
SMILES: CCCC[C@H](NC(=O)[C@H](CCC(N)=O)NC(=O)[C@H](CCCCN)NC(=O)[C@H](CO)NC(=O)[C@H](Cc1ccccc1F)NC(=O)[C@H](CC(=O)O)NC(=O)[C@H](CO)NC(=O)[C@@H](NC(=O)[C@H](Cc1ccccc1)NC(=O)[C@@H](NC(=O)CNC(=O)[C@H](CCC(N)=O)NC(=O)[C@H](CO)NC(=O)[C@@H](N)Cc1cscn1)[C@@H](C)O)[C@@H](C)O)C(=O)N[C@@H](CCC(=O)O)C(=O)N[C@@H](CO)C(=O)N[C@@H](CCCNC(=N)N)C(=O)N[C@@H](CCCNC(=N)N)C(=O)N[C@@H](C)C(=O)N[C@@H](CCC(N)=O)C(=O)N[C@@H](CC(=O)O)C(=O)N[C@@H](Cc1ccccc1)C(=O)N[C@H](C(=O)N[C@@H](CCC(=O)O)C(=O)N[C@@H](Cc1c[nH]c2ccccc12)C(=O)N[C@@H](CC(C)C)C(=O)N[C@@H](CC(C)C)C(=O)N[C@@H](C)C(=O)N[C@H](C(=O)NCC(=O)N1CCC[C@H]1C(=O)N[C@@H](CCC(=O)O)C(=O)N[C@@H](CO)C(=O)NCC(=O)N[C@@H](C)C(=O)N1CCC[C@H]1C(=O)N1CCC[C@H]1C(=O)N1CCC[C@H]1C(=O)N[C@@H](CO)C(=O)O)[C@@H](C)O)[C@@H](C)CC

The binders below were run against human GLP-1 receptor (human, UniProt P43220 24-463) (assay: cell-based or functional assay).
B1 was tested, and the “EC50 hGLP-1 R [pM], cAMP formation” value was 32100 pM.
In the case of B2, the “EC50 hGLP-1 R [pM], cAMP formation” value is reported as 12200 pM.
For B3, the “EC50 hGLP-1 R [pM], cAMP formation” value was 49700 pM.
With XSQGTFTSDISKQXESRRAQEFIEWLLATGPESGAPPPS (Tza (L-4-thiazolylalanine) at position 1; Nle at position 14; C-terminal -OH) [SEQ ID NO: 14] the “EC50 hGLP-1 R [pM], cAMP formation” value was 52900 pM.
With XSQGTFTSDYSKQXESRRAQEFIEWLLATGPESGAPPPS (Tza (L-4-thiazolylalanine) at position 1; Nle at position 14; C-terminal -OH) [SEQ ID NO: 17] the “EC50 hGLP-1 R [pM], cAMP formation” value was 6940 pM.
In the case of B4, the “EC50 hGLP-1 R [pM], cAMP formation” value is reported as 38900 pM.
In the case of B5, the “EC50 hGLP-1 R [pM], cAMP formation” value is reported as 6640 pM.
B6 was tested, and the “EC50 hGLP-1 R [pM], cAMP formation” value was 25800 pM.

Each binder was assayed against human glucagon receptor (human, UniProt P47871 26-477) (assay: cell-based or functional assay).
human glucagon receptor, sequence (P47871 26-477): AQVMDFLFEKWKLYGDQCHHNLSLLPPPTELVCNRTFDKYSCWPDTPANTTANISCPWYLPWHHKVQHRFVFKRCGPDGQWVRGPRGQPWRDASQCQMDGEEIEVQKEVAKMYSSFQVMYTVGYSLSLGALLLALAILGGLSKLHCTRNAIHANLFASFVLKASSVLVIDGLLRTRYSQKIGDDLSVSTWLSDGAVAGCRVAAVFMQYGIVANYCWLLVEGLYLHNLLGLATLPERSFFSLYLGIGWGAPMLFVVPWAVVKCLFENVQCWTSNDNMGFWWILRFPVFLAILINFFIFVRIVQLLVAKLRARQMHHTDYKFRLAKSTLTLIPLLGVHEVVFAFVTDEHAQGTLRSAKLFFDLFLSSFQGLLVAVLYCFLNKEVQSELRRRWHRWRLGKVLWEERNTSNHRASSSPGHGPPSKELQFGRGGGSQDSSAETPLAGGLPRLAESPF
For B1, the “EC50 hGLUC R [pM], cAMP formation” value was 3.1 pM.
For B2, the “EC50 hGLUC R [pM], cAMP formation” value was 2.2 pM.
With B3 the “EC50 hGLUC R [pM], cAMP formation” value was 1.4 pM.
In the case of XSQGTFTSDISKQXESRRAQEFIEWLLATGPESGAPPPS (Tza (L-4-thiazolylalanine) at position 1; Nle at position 14; C-terminal -OH) [SEQ ID NO: 14], the “EC50 hGLUC R [pM], cAMP formation” value is reported as 1.2 pM.
With XSQGTFTSDYSKQXESRRAQEFIEWLLATGPESGAPPPS (Tza (L-4-thiazolylalanine) at position 1; Nle at position 14; C-terminal -OH) [SEQ ID NO: 17] the “EC50 hGLUC R [pM], cAMP formation” value was 1 pM.
In the case of B4, the “EC50 hGLUC R [pM], cAMP formation” value is reported as 3.8 pM.
In the case of B5, the “EC50 hGLUC R [pM], cAMP formation” value is reported as 0.7 pM.
B6 was tested, and the “EC50 hGLUC R [pM], cAMP formation” value was 3.1 pM.

Reference: patent US20150368311A1 (Sanofi, published 2015)
